Laboratory results reported in patent publication US20170158755A1.

How the values were obtained:
[1] = molecular target: His-LAMA4 as used in Example 6 (species not stated) (Homo sapiens (Human)) (UniProt Q16363); assay: ForteBio BLI, LAMA-His on anti-His sensor, antibody 33.3 nM
[2] = molecular target: His-LAMA4 as used in Example 6 (species not stated) (Homo sapiens (Human)) (UniProt Q16363); assay: ForteBio BLI, LAMA-His on anti-His sensor, antibody 16.7 nM
[3] = molecular target: His-LAMA4 as used in Example 6 (species not stated) (Homo sapiens (Human)) (UniProt Q16363); assay: ForteBio BLI, LAMA-His on anti-His sensor, antibody 8.33 nM
[4] = molecular target: His-LAMA4 as used in Example 6 (species not stated) (Homo sapiens (Human)) (UniProt Q16363); assay: Biacore SPR, Fab, steady-state approximation
[5] = molecular target: His-LAMA4 as used in Example 6 (species not stated) (Homo sapiens (Human)) (UniProt Q16363); assay: Biacore SPR, Fab over His-laminin-α4 captured on anti-6xHis; Fab, not IgG; kinetic fit
[6] = molecular target: His-LAMA4 as used in Example 6 (species not stated) (Homo sapiens (Human)) (UniProt Q16363); assay: Biacore SPR, Fab over His-laminin-α4 captured on anti-6xHis
[7] = molecular target: His-LAMA4 as used in Example 6 (species not stated) (Homo sapiens (Human)) (UniProt Q16363); assay: Biacore, steady-state approximation; IgG loaded on anti-human Fc sensor, free laminin α4 as analyte; IgG on anti-human Fc sensor, free laminin α4 as analyte; steady state
[8] = molecular target: His-LAMA4 as used in Example 6 (species not stated) (Homo sapiens (Human)) (UniProt Q16363); assay: Biacore, steady-state approximation; IgG loaded on anti-human Fc sensor, free laminin α4 as analyte

Row | Kd [1] [nM] | Response [1] | koff [1] [s⁻¹] | kon [1] [M⁻¹ s⁻¹] | Kd [2] [nM] | Response [2] | koff [2] [s⁻¹] | kon [2] [M⁻¹ s⁻¹] | Kd [3] [nM] | Response [3] | koff [3] [s⁻¹] | kon [3] [M⁻¹ s⁻¹] | Kd [4] [nM] | kon [5] [M⁻¹ s⁻¹] | Kd [6] [nM] | koff [6] [s⁻¹] | kon [6] [M⁻¹ s⁻¹] | Kd [7] [nM] | Kd [8] [nM] | Binder
1 | 0.111 | 1.38 | 0.000487 | 4.37e+06 | 0.0538 | 1.27 | 0.000403 | 7.49e+06 | 0.0126 | 1.15 | 0.000251 | 2e+07 |  |  |  |  |  |  |  | chimeric 19C12 antibody (antibody, V domains shown) VH: QVQLQQSGAELVKPGASVKISCKASGYAFSTYWMNWVKQRPGEGLEWIGQIYPGDGDTNYNGKFKGKATLTADKSSSTAYMQLSSLTSEDSAVYFCARSDGYYDYWGQGTTLTVSS VL: NIVLTQSPASLAVSLGQRATISCRASESVDSYGTSFMHWYQQKPGQPPKLLICLASSLESGVPARFSGSGSRTDFTLTIDPVEADDAATYYCQQNNEDPPTFGAGTKLELKR
2 |  |  |  |  |  |  |  |  |  |  |  |  | 7.1 |  |  |  |  |  |  | Fab fragment of humanized 19C12 H2L4 (Fab, V domains shown) VH: QVQLQQSGAELVKPGASVKVSCKASGYAFSTYWMNWVRQAPGQGLEWIGQIYPGDGDTNYNGKFKGRVTITADKSTSTAYMELSSLRSEDTAVYFCARSDGYYDYWGQGTTVTVSS VL: NIVLTQSPASLAVSLGERATISCRASESVDSYGTSFMHWYQQKPGQPPKLLISLASSLESGVPARFSGSGSGTDFTLTISPVEAEDAATYYCQQNNEDPPTFGAGTKLEIKR
3 |  |  |  |  |  |  |  |  |  |  |  |  | 8.4 |  |  |  |  |  |  | Fab fragment of humanized 19C12 H2L6 (Fab, V domains shown) VH: QVQLQQSGAELVKPGASVKVSCKASGYAFSTYWMNWVRQAPGQGLEWIGQIYPGDGDTNYNGKFKGRVTITADKSTSTAYMELSSLRSEDTAVYFCARSDGYYDYWGQGTTVTVSS VL: DIVLTQSPASLAVSLGERATISCRASESVDSYGTSFMHWYQQKPGQPPKLLISLASSLESGVPARFSGSGSGTDFTLTISPVEAEDAATYYCQQNNEDPPTFGAGTKLEIKR
4 |  |  |  |  |  |  |  |  |  |  |  |  | 7.2 |  |  |  |  |  |  | Fab fragment of humanized 19C12 H3L6 (Fab, V domains shown) VH: EVQLQQSGAELVKPGASVKVSCKASGYAFSTYWMNWVRQAPGQGLEWIGQIYPGDGDTNYNGKFKGRVTITADKSTSTAYMELSSLRSEDTAVYFCARSDGYYDYWGQGTTVTVSS VL: DIVLTQSPASLAVSLGERATISCRASESVDSYGTSFMHWYQQKPGQPPKLLISLASSLESGVPARFSGSGSGTDFTLTISPVEAEDAATYYCQQNNEDPPTFGAGTKLEIKR
5 |  |  |  |  |  |  |  |  |  |  |  |  | 0.98 | 9.5e+06 | 0.62 | 0.0059 |  |  |  | Fab fragment of chimeric 19C12 (Fab, V domains shown) VH: QVQLQQSGAELVKPGASVKISCKASGYAFSTYWMNWVKQRPGEGLEWIGQIYPGDGDTNYNGKFKGKATLTADKSSSTAYMQLSSLTSEDSAVYFCARSDGYYDYWGQGTTLTVSS VL: NIVLTQSPASLAVSLGQRATISCRASESVDSYGTSFMHWYQQKPGQPPKLLICLASSLESGVPARFSGSGSRTDFTLTIDPVEADDAATYYCQQNNEDPPTFGAGTKLELKR
6 |  |  |  |  |  |  |  |  |  |  |  |  | 1.9 |  | 0.78 | 0.0077 | 9.8e+06 |  |  | Fab fragment of humanized 19C12 H2L3 (Fab, V domains shown) VH: QVQLQQSGAELVKPGASVKVSCKASGYAFSTYWMNWVRQAPGQGLEWIGQIYPGDGDTNYNGKFKGRVTITADKSTSTAYMELSSLRSEDTAVYFCARSDGYYDYWGQGTTVTVSS VL: NIVLTQSPASLAVSLGERATISCRASESVDSYGTSFMHWYQQKPGQPPKLLICLASSLESGVPARFSGSGSRTDFTLTIDPVEAEDAATYYCQQNNEDPPTFGAGTKLEIKR
7 | 0.115 | 1.54 | 0.000493 | 4.29e+06 | 0.0507 | 1.34 | 0.000363 | 7.16e+06 | 0.0124 | 1.23 | 0.000256 | 2.07e+07 |  |  |  |  |  | 1.86 |  | humanized 19C12 antibody H2L3 (antibody, V domains shown) VH: QVQLQQSGAELVKPGASVKVSCKASGYAFSTYWMNWVRQAPGQGLEWIGQIYPGDGDTNYNGKFKGRVTITADKSTSTAYMELSSLRSEDTAVYFCARSDGYYDYWGQGTTVTVSS VL: NIVLTQSPASLAVSLGERATISCRASESVDSYGTSFMHWYQQKPGQPPKLLICLASSLESGVPARFSGSGSRTDFTLTIDPVEAEDAATYYCQQNNEDPPTFGAGTKLEIKR
8 | 0.113 | 1.38 | 0.000553 | 4.89e+06 | 0.0626 | 1.21 | 0.000501 | 8.01e+06 | 0.0135 | 1.2 | 0.000286 | 2.11e+07 |  |  |  |  |  |  | 1.36 | humanized 19C12 antibody H3L6 (antibody, V domains shown) VH: EVQLQQSGAELVKPGASVKVSCKASGYAFSTYWMNWVRQAPGQGLEWIGQIYPGDGDTNYNGKFKGRVTITADKSTSTAYMELSSLRSEDTAVYFCARSDGYYDYWGQGTTVTVSS VL: DIVLTQSPASLAVSLGERATISCRASESVDSYGTSFMHWYQQKPGQPPKLLISLASSLESGVPARFSGSGSGTDFTLTISPVEAEDAATYYCQQNNEDPPTFGAGTKLEIKR
9 | 0.123 | 1.26 | 0.000585 | 4.75e+06 |  |  |  |  | 0.0154 | 1.13 | 0.000308 | 2e+07 |  |  |  |  |  |  |  | humanized 19C12 antibody H2L6 (antibody, V domains shown) VH: QVQLQQSGAELVKPGASVKVSCKASGYAFSTYWMNWVRQAPGQGLEWIGQIYPGDGDTNYNGKFKGRVTITADKSTSTAYMELSSLRSEDTAVYFCARSDGYYDYWGQGTTVTVSS VL: DIVLTQSPASLAVSLGERATISCRASESVDSYGTSFMHWYQQKPGQPPKLLISLASSLESGVPARFSGSGSGTDFTLTISPVEAEDAATYYCQQNNEDPPTFGAGTKLEIKR
10 | 0.127 | 1.25 | 0.00062 | 4.87e+06 | 0.0227 | 1.26 | 0.000227 | 9.98e+06 | 0.0161 | 1.18 | 0.000268 | 1.67e+07 |  |  |  |  |  |  |  | humanized 19C12 antibody H2L4 (antibody, V domains shown) VH: QVQLQQSGAELVKPGASVKVSCKASGYAFSTYWMNWVRQAPGQGLEWIGQIYPGDGDTNYNGKFKGRVTITADKSTSTAYMELSSLRSEDTAVYFCARSDGYYDYWGQGTTVTVSS VL: NIVLTQSPASLAVSLGERATISCRASESVDSYGTSFMHWYQQKPGQPPKLLISLASSLESGVPARFSGSGSGTDFTLTISPVEAEDAATYYCQQNNEDPPTFGAGTKLEIKR
